Laboratory results published in publication PMC4005694.

Experiments:
[1] = molecular target: Methanothermobacter thermautotrophicus 70S ribosome (M. thermautotrophicus (endogenous in M. thermautotrophicus cells)) (UniProt O26110); assay: MST; fluorescently labelled (DY-495) 70S, 50S or 30S kept constant, unlabelled aaRS or control protein titrated (mSerRS 2.5 nM-40.8 µM, ArgRS 5.6 nM-91.9 µM on 70S); 20 mM Tris-HCl pH 7.5, 150 mM NaCl, 6 mM MgCl2, 1 mM DTT, 0.05% Tween-20, 0.4 mg/ml BSA; hyperbolic fit
[2] = molecular target: Methanothermobacter thermautotrophicus large ribosomal subunit (M. thermautotrophicus (endogenous in M. thermautotrophicus cells)) (UniProt O26110); assay: as above
Methanothermobacter thermautotrophicus large ribosomal subunit (M. thermautotrophicus (endogenous in M. thermautotrophicus cells)), sequence (O26110 whole entry, looked up, tested part not stated): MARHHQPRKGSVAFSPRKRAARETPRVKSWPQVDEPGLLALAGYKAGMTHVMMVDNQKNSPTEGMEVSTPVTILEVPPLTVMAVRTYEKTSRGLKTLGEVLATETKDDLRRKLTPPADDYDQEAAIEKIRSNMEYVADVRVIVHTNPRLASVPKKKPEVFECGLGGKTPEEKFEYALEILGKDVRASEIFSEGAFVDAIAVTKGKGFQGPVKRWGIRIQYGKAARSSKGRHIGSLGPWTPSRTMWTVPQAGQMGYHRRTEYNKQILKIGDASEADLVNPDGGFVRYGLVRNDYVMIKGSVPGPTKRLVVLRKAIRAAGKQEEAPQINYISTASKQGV

Methanothermobacter thermautotrophicus 70S ribosome (M. thermautotrophicus (endogenous in M. thermautotrophicus cells)), sequence (O26110 whole entry, looked up): as the sequence (O26110 whole entry, looked up, tested part not stated) above

Kd [1] [nM] | Kd [2] [nM] | Binder
1250 | 1290 | Methanothermobacter thermautotrophicus methanogenic-type seryl-tRNA synthetase (enzyme) MKFKLKGIIKLSKEVPGIEDDLEKFFTEAESDILRRGVPEGQEHEAAHIKSWRLEGDTLHIEMESGRRVRAHDGLLRLKKPLGQLLGPKYRVGVRGISVTDYTMEMKAPGVSGIPSLAELPFVEDAAITDGTIMVRFQPLEESDLRKHVFDRVVKHARTLVESSDDLTVQVTRATPGEIIARSRSRDFFFEGDPTEEAMRLGWVKKFPGRGQWFYGPKITALHRALEEFFIERIVKPLGFVECLFPKLIPLDIMNKMRYLEGLPEGMYYCSAPSRDPETFEEFKNELIINREVPMDLLKRGIKDPGYVIAPAQCEPFYQFLSHEVVSAEDLPVKFFDRSGWTYRWEAGGSKGLDRVHEFQRVELVWLAEPGETEEIRDRTVELSHDAADELELEWYTEVGDDPFYLEGRKVEERGIEFPDVPKYEMRLSLPGREKGVAVVSANVHGTHFIEGFSIREARNLNIWTGCTGIGLSRWIYGFLAQKGFETGNWPDFIGERVEGVENPRIITWPRQD
4700 | – | Methanothermobacter thermautotrophicus arginyl-tRNA synthetase (enzyme) MFRYIEKEARDSITAALEKLGIKVPPEIKLEEPPNPQLGDLASTVSFELAGKLRRAPIEITADIMSVIETPEIFETIESKGPYINFFVDYGRFSSRLLESIQDDYGSHPPRDERVILEHTSANPNGPLHIGHIRNAIIGDSLARILRMAGYDVETQYYVNDMGRQIAMIVWGLLNLDGDLEDYPGDKMDHRVGKLYFEVNQRLKENPGIRDEVDELIRKYEAGENEELFRKVVEYCLSGMEETMKRLHVHHDRFVWEGQFVRDGTVDRVIESLRKTGYTGENDVLYLDLEEFGLEKELVLTRSDGTSLYSTRDIAYHLQKSEEGDVIIDVLGSDHKLAAEQVGIAVELLGGKRPEVIFYEFITLPEGSMSTRRGVFISVDELMDEAHSRALHEVKKRRDLPDDVADDIAESIGNGAIRYYIARLSPEKHIVFRWDDALSFERGCASIQYAHARACKLLEKASFTGEEDIEDGWKPEGDERELVRLLARFPVVVEESALARRVHPVAQYAQDLANTFNSFYRSTPVIGSDFEGARLRLVDSVRKTLRNALNLLGIHAPETM
